Assay results from patent US20260274955A1 (JANUX THERAPEUTICS, published 2026).

Experiments:
[1] = target: Anti-CD28 Fab (SEQ ID NOs: 202, 203); experiment: phage binding ELISA on captured Fab;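 further: clonal phage supernatants added briefly to wells pre-incubated with CD28 antigen or with blocking buffer only, then washed, bound phage read by ELISA using HRP-coupled anti-M13 antibody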
Procedure: (§1) Clonal phage were harvested as crude supernatants and screened via standard ELISAs. […] Prior to the addition of clonal phage, wells were incubated with blocking buffer and CD28 antigen or blocking buffer alone. Without washing or aspirating, clonal phage supernatants were then added to the wells and incubated for a short time. Wells were then washed followed by detection of bound phage using a horse radish conjugated anti-M13 antibody.

[2] = target: Anti-CD28 Fab (SEQ ID NOs: 202, 203); experiment: phage binding ELISA on captured Fab; competitor CD28 antigen;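 on Anti-CD28 Fab signal in the presence of CD28: wells pretreated with CD28 antigen in blocking buffer or buffer only, then clonal phage supernatants added briefly without washing, bound phage detected via horseradish-conjugated anti-M13 antibody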
Procedure: as §1

[3] = target: anti-CD28 Fab (SEQ ID NOs: 202, 203); experiment: phage ELISA, Fab on plate;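 further: ELISA of crude clonal phage supernatants on the plate, wells preloaded with CD28 antigen or only blocking buffer, captured phage read out via HRP-linked anti-M13 antibody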
Procedure: (§2) After panning, phage infected bacteria were plated out and colonies picked into 96 well blocks. Clonal phage was then amplified and separated from bacterial cells via centrifugation.
(§3) Clonal phage were harvested as crude supernatants and screened via standard ELISAs. […] Prior to the addition of clonal phage, wells were incubated with blocking buffer and CD28 antigen or blocking buffer alone. Without washing or aspirating, clonal phage supernatants were then added to the wells and incubated for a short time. Wells were then washed followed by detection of bound phage using a horse radish conjugated anti-M13 antibody. Clonal phage of interest were then sent for sequence analysis.

[4] = target: anti-CD28 Fab (SEQ ID NOs: 202, 203); experiment: phage ELISA, Fab on plate, CD28 antigen as competitor;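 further: wells pre-incubated with CD28 antigen in blocking buffer (reference: blocking buffer only) before adding crude clonal phage supernatant, bound phage read with HRP-coupled anti-M13 antibody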
Procedure: as §2, §3

Anti-CD28 Fab (SEQ ID NOs: 202, 203), sequence (VH, as listed by the source, chain 1 of 2): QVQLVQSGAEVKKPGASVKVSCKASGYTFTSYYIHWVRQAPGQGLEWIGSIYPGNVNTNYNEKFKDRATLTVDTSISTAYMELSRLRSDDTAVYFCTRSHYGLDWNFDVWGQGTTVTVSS
Anti-CD28 Fab (SEQ ID NOs: 202, 203), sequence (VL, as listed by the source, chain 2 of 2): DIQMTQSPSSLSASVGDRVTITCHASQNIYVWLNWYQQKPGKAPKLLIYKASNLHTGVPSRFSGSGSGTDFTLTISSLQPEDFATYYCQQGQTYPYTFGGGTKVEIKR
anti-CD28 Fab (SEQ ID NOs: 202, 203), sequence (VH, as listed by the source, chain 1 of 2): as the sequence (VH, as listed by the source, chain 1 of 2) above
anti-CD28 Fab (SEQ ID NOs: 202, 203), sequence (VL, as listed by the source, chain 2 of 2): as the sequence (VL, as listed by the source, chain 2 of 2) above

B1: Phage-90 (peptide)
peptide: YCEGHTMEYMWKCL
- Anti-CD28 Fab signal [1]: 2.31
- Anti-CD28 Fab signal in the presence of CD28 [2]: 0.07

B2: Phage-1112 (peptide)
peptide: TCSAGATYKWPVCL
- Anti-CD28 Fab signal [3]: 1.47
- Anti-CD28 Fab signal in the presence of CD28 [4]: 0.06

B3: Phage-1160 (peptide)
peptide: SCAAGAHYPWPECL
- Anti-CD28 Fab signal [3]: 1.32
- Anti-CD28 Fab signal in the presence of CD28 [4]: 0.05

B4: Phage-1117 (peptide)
peptide: TCSAGFSYKWPWCW
- Anti-CD28 Fab signal [3]: 1.45
- Anti-CD28 Fab signal in the presence of CD28 [4]: 0.06

B5: Phage-92 (peptide)
peptide: YCDGHSPQYIEKCL
- Anti-CD28 Fab signal [1]: 2.31
- Anti-CD28 Fab signal in the presence of CD28 [2]: 0.07

B6: Phage-88 (peptide)
peptide: YCDGHEPQYMLKCL
- Anti-CD28 Fab signal [1]: 2.32
- Anti-CD28 Fab signal in the presence of CD28 [2]: 0.12

B7: Phage-1100 (peptide)
peptide: SCAAGAHYKWPVCI
- Anti-CD28 Fab signal [3]: 1.51
- Anti-CD28 Fab signal in the presence of CD28 [4]: 0.06

B8: Phage-1161 (peptide)
peptide: SCAEVFNYVWPFCF
- Anti-CD28 Fab signal [3]: 1.32
- Anti-CD28 Fab signal in the presence of CD28 [4]: 0.07

B9: Phage-1158 (peptide)
peptide: SCSAGATYTWPACL
- Anti-CD28 Fab signal [3]: 1.34
- Anti-CD28 Fab signal in the presence of CD28 [4]: 0.07

B10: Phage-98 (peptide)
peptide: YCAGHSPEHMWKCL
- Anti-CD28 Fab signal [1]: 2.3
- Anti-CD28 Fab signal in the presence of CD28 [2]: 0.06

B11: Phage-1159 (peptide)
peptide: TCSAGAHYSWPKCF
- Anti-CD28 Fab signal [3]: 1.33
- Anti-CD28 Fab signal in the presence of CD28 [4]: 0.07

B12: Phage-1104 (peptide)
peptide: TCAAGAHYLWPHCL
- Anti-CD28 Fab signal [3]: 1.5
- Anti-CD28 Fab signal in the presence of CD28 [4]: 0.12

B13: Phage-37 (peptide)
peptide: YCEGHSSEYIQKCL
- Anti-CD28 Fab signal [1]: 2.25
- Anti-CD28 Fab signal in the presence of CD28 [2]: 0.1

B14: Phage-1101 (peptide)
peptide: ICAAGFIWSWPACF
- Anti-CD28 Fab signal [3]: 1.51
- Anti-CD28 Fab signal in the presence of CD28 [4]: 0.08

B15: Phage-1122 (peptide)
peptide: WCGVGMDWRWPECL
- Anti-CD28 Fab signal [3]: 1.44
- Anti-CD28 Fab signal in the presence of CD28 [4]: 0.16

B16: Phage-39 (peptide)
peptide: YCWSHSPPFIKKCY
- Anti-CD28 Fab signal [1]: 2.06
- Anti-CD28 Fab signal in the presence of CD28 [2]: 0.06

B17: Phage-67 (peptide)
peptide: YCEGHTAEYMQKCL
- Anti-CD28 Fab signal [1]: 2.38
- Anti-CD28 Fab signal in the presence of CD28 [2]: 0.08

B18: Phage-1126 (peptide)
peptide: WCDQFFHYKWPLCL
- Anti-CD28 Fab signal [3]: 1.42
- Anti-CD28 Fab signal in the presence of CD28 [4]: 0.07

B19: Phage-1108 (peptide)
peptide: TCAAGATYTWPTCF
- Anti-CD28 Fab signal [3]: 1.48
- Anti-CD28 Fab signal in the presence of CD28 [4]: 0.05

B20: Phage-141 (peptide)
peptide: YCDGHRGEYLQKCL
- Anti-CD28 Fab signal [1]: 2.22
- Anti-CD28 Fab signal in the presence of CD28 [2]: 0.09

B21: Phage-1123 (peptide)
peptide: TCEDGFHFSWPECF
- Anti-CD28 Fab signal [3]: 1.44
- Anti-CD28 Fab signal in the presence of CD28 [4]: 0.07

B22: Phage-1115 (peptide)
peptide: LCAAGATYPWPICL
- Anti-CD28 Fab signal [3]: 1.46
- Anti-CD28 Fab signal in the presence of CD28 [4]: 0.08

B23: Phage-149 (peptide)
peptide: YCEGHTVEYMAKCL
- Anti-CD28 Fab signal [1]: 2.2
- Anti-CD28 Fab signal in the presence of CD28 [2]: 0.08

B24: Phage-1105 (peptide)
peptide: PCAAGAMWAWPYCL
- Anti-CD28 Fab signal [3]: 1.49
- Anti-CD28 Fab signal in the presence of CD28 [4]: 0.05

B25: Phage-41 (peptide)
peptide: YCEGHLPEYLEKCV
- Anti-CD28 Fab signal [1]: 2.11
- Anti-CD28 Fab signal in the presence of CD28 [2]: 0.06

B26: Phage-1103 (peptide)
peptide: QCAAGAMWTWPVCF
- Anti-CD28 Fab signal [3]: 1.5
- Anti-CD28 Fab signal in the presence of CD28 [4]: 0.07

B27: Phage-1179 (peptide)
peptide: RCAAGAMWTWPACF
- Anti-CD28 Fab signal [3]: 1.25
- Anti-CD28 Fab signal in the presence of CD28 [4]: 0.06

B28: Phage-1187 (peptide)
peptide: TCSAGATYSWPSCF
- Anti-CD28 Fab signal [3]: 1.21
- Anti-CD28 Fab signal in the presence of CD28 [4]: 0.09

B29: Phage-1102 (peptide)
peptide: TCAAGATYSWPDCF
- Anti-CD28 Fab signal [3]: 1.51
- Anti-CD28 Fab signal in the presence of CD28 [4]: 0.06

B30: Phage-1125 (peptide)
peptide: TCSAGATYTWPSCF
- Anti-CD28 Fab signal [3]: 1.42
- Anti-CD28 Fab signal in the presence of CD28 [4]: 0.06

B31: Phage-91 (peptide)
peptide: YCAGHLPEYMPHCI
- Anti-CD28 Fab signal [1]: 2.31
- Anti-CD28 Fab signal in the presence of CD28 [2]: 0.09

B32: Phage-1109 (peptide)
peptide: TCAAGASWEWPACL
- Anti-CD28 Fab signal [3]: 1.48
- Anti-CD28 Fab signal in the presence of CD28 [4]: 0.08

B33: Phage-1114 (peptide)
peptide: TCAAGANWHWPWCF
- Anti-CD28 Fab signal [3]: 1.46
- Anti-CD28 Fab signal in the presence of CD28 [4]: 0.15

B34: Phage-1128 (peptide)
peptide: TCAAGAHYSWPFCM
- Anti-CD28 Fab signal [3]: 1.42
- Anti-CD28 Fab signal in the presence of CD28 [4]: 0.07

B35: Phage-99 (peptide)
peptide: YCEGHSEEYISKCL
- Anti-CD28 Fab signal [1]: 2.3
- Anti-CD28 Fab signal in the presence of CD28 [2]: 0.08

B36: Phage-1111 (peptide)
peptide: TCAAGAHYTWPTCL
- Anti-CD28 Fab signal [3]: 1.47
- Anti-CD28 Fab signal in the presence of CD28 [4]: 0.07

B37: Phage-1120 (peptide)
peptide: TCSAGATYMWPACF
- Anti-CD28 Fab signal [3]: 1.44
- Anti-CD28 Fab signal in the presence of CD28 [4]: 0.1

B38: Phage-1121 (peptide)
peptide: TCSAGATYAWPACF
- Anti-CD28 Fab signal [3]: 1.44
- Anti-CD28 Fab signal in the presence of CD28 [4]: 0.08

B39: Phage-1172 (peptide)
peptide: TCSAGATYKWPACF
- Anti-CD28 Fab signal [3]: 1.29
- Anti-CD28 Fab signal in the presence of CD28 [4]: 0.05

B40: Phage-1186 (peptide)
peptide: TCSAGATYSWPYCL
- Anti-CD28 Fab signal [3]: 1.22
- Anti-CD28 Fab signal in the presence of CD28 [4]: 0.07

B41: Phage-70 (peptide)
peptide: YCDGHSWEYIGKCL
- Anti-CD28 Fab signal [1]: 2.37
- Anti-CD28 Fab signal in the presence of CD28 [2]: 0.07

B42: Phage-65 (peptide)
peptide: YCAGHMPEYMAKCL
- Anti-CD28 Fab signal [1]: 2.38
- Anti-CD28 Fab signal in the presence of CD28 [2]: 0.11

B43: Phage-1162 (peptide)
peptide: TCAAGAAYTWPVCF
- Anti-CD28 Fab signal [3]: 1.32
- Anti-CD28 Fab signal in the presence of CD28 [4]: 0.08

B44: Phage-145 (peptide)
peptide: YCDGHIEEYRAKCL
- Anti-CD28 Fab signal [1]: 2.21
- Anti-CD28 Fab signal in the presence of CD28 [2]: 0.07

B45: Phage-1113 (peptide)
peptide: SCSAGATYEWPYCF
- Anti-CD28 Fab signal [3]: 1.47
- Anti-CD28 Fab signal in the presence of CD28 [4]: 0.06

B46: Phage-1176 (peptide)
peptide: SCSAGATYQWPYCF
- Anti-CD28 Fab signal [3]: 1.26
- Anti-CD28 Fab signal in the presence of CD28 [4]: 0.06

B47: Phage-148 (peptide)
peptide: YCDGHAPEYMEKCM
- Anti-CD28 Fab signal [1]: 2.21
- Anti-CD28 Fab signal in the presence of CD28 [2]: 0.07

B48: Phage-1127 (peptide)
peptide: SCAAGATYVWPMCF
- Anti-CD28 Fab signal [3]: 1.42
- Anti-CD28 Fab signal in the presence of CD28 [4]: 0.07

B49: Phage-1107 (peptide)
peptide: TCAAGVHFGWPLCF
- Anti-CD28 Fab signal [3]: 1.49
- Anti-CD28 Fab signal in the presence of CD28 [4]: 0.07

B50: Phage-95 (peptide)
peptide: YCDGHTLEYMWKCL
- Anti-CD28 Fab signal [1]: 2.31
- Anti-CD28 Fab signal in the presence of CD28 [2]: 0.13

B51: Phage-1110 (peptide)
peptide: TCAAGAMYQWPECF
- Anti-CD28 Fab signal [3]: 1.48
- Anti-CD28 Fab signal in the presence of CD28 [4]: 0.06

B52: Phage-1116 (peptide)
peptide: SCSAGALWKWPVCF
- Anti-CD28 Fab signal [3]: 1.45
- Anti-CD28 Fab signal in the presence of CD28 [4]: 0.07

B53: Phage-1118 (peptide)
peptide: SCSAGAMYQWPLCF
- Anti-CD28 Fab signal [3]: 1.44
- Anti-CD28 Fab signal in the presence of CD28 [4]: 0.09

B54: Phage-38 (peptide)
peptide: HCSGHHWLQVWKCF
- Anti-CD28 Fab signal [1]: 2.31
- Anti-CD28 Fab signal in the presence of CD28 [2]: 0.07
